{"source": "a protein production outcome set (Wang et al. 2014)", "experiment": "label from the status in PepcDB records", "data": [{"sequence": "MSEPHRDTKIGQVLMNRYQLTELIGKGSMGRVYRAEDILLGGVPVAVKFLSQTLLNDRMKTRFAQEARAGALLGQKSMHVVRVLDYGMNNEEIPFYVMEFLEGENLSDLLLEEPLPLSRFLRIARHMCLGLQVAHEGIIIEGQKCPIIHRDIKPSNVLVIQDGTMGELAKLLDFGIAKFLGDVPEKGQTSSFMGTLAYCSPEQIEGRELDHRSDIYSLGITMYELLTGKMPIQAESHSIGSWFKAHHFQKPIPFNVASPGLHLPPALEELIMACMAKSPSDRPQNVAEIIKVLTALEDQFGSTRVTQPGVEVGAKVSQPLERQSQPPVALATVEEVCWQSVWPADKPVAEIVFPMPLYAQRESAASLWVMLPRSEIDRRMLNLRYNQFLFTTSPHPMILWITAIYDPQQGPRWLPCYLDMKLPRNQELCLLLSETGYYPLLFFSLEDPQHCINVRTFTIATFQRQLLRDWLQTSKNLPSSAPAVVSRNLLKAEFENYKPQILAKLENVKMATVID", "values": [{"measurement": "protein production", "result": "failed"}]}, {"sequence": "MSEGFSSSSIQELYQSLKEITNNADVELFEDRITKLDFESTDEPKHANDIIKDRFLRPSNALPWSLLDMVQDVPHTSSPEDCSGKLDYKELLKVPDPINRTSYQFKRTGLEGKISGYKEEVDLKEVANANASNSLSITRSINHNQNSVRGSTAQLPFTPGGIPMKSVKTDSEQNGSSTMANATKLLHKDGQGLFDIPEGMNRGIKPMDSPAENEDQNGQFKELKQLNEIDNELDIRIEANEAKLKEEEKSAKSISEEIMEEATEETTADNADDAEIDELLPIGIDFGRTKPVSKSVPVKKEWAHVVDLNHKIENFDELIPNPARSWPFELDTFQKEAVYHLEQGDSVFVAAHTSAGKTVVAEYAIAMAHRNMTKTIYTSPIKALSNQKFRDFKETFDDVNIGLITGDVQINPDANCLIMTTEILRSMLYRGADLIRDVEFVIFDEVHYVNDQDRGVVWEEVIIMLPQHVKFILLSATVPNTYEFANWIGRTKQKNIYVISTPKRPVPLEINIWAKKELIPVINQNSEFLEANFRKHKEILNGESAKGAPSKTDNGRGGSTARGGRGGSNTRDGRGGRGNSTRGGANRGGSRGAGAIGSNKRKFFTQDGPSKKTWPEIVNYLRKRELLPMVVFVFSKKRCEEYADWLEGINFCNNKEKSQIHMFIEKSITRLKKEDRDLPQILKTRSLLERGIAVHHGGLLPIVKELIEILFSKGFIKVLFATETFAMGLNLPTRTVIFSSIRKHDGNGLRELTPGEFTQMAGRAGRRGLDSTGTVIVMAYNSPLSIATFKEVTMGVPTRLQSQFRLTYNMILNLLRIEALRVEEMIKYSFSENAKETLQPEHEKQIKVLQEELQTIEYKSCEICDNDIEKFLELMLAYKEATVNLMQEMVKSPSILHILKEGRLVAFRDPNDCLKLGFVFKVSLKDAVCVIMTFTKPYKLPNGEPNHLIYFPKADGYRRRNFPKFQKTDFYMEEVPVTAIEVITKRKFAAPLGKVIKKDVAALNEFNAETNNILDGKTLKEAINIEKQGLKIHQILLDRTNIRDEIFKLKSIKCPNLSQHIVPKFKAHVIKKKIEELYHLMSDQNLSLLPDYEKRLAVLKDTEFIDQNHNVLLKGRVACEINSGYELVLTELILDNFLGSFEPEEIVALLSVFVYEGKTREEEPPIVTPRLAKGKQRIEEIYKKMLCVFNTHQIPLTQDEAEFLDRKRFAMMNVVYEWARGLSFKEIMEMSPEAEGTVVRVITWLDEICREVKTASIIIGNSTLHMKMSRAQELIKRDIVFAASLYL", "values": [{"measurement": "protein production", "result": "failed"}]}, {"sequence": "MRRENTKSNIDFKSIFDSLPDLYLLLDRDFNIVGVSDAYLQATMVSRKQILGKNVFDAFPDNPNDPKATGAKNLYASLLRVLKNKSADTMAIQKYDIQRPADRGGGFEERYWSPINTPVLGADQEVEYIIHRVEDVT", "values": [{"measurement": "protein production", "result": "failed"}]}, {"sequence": "MMKKSATTSSACNGCPAHSGNKLRRMGTDAERYDFTIALAGNPNTGKSTVFNALTGLKQHTGNWPGKTVEKAEGAFSYAGSSYKIVDLPGTYSLLSTSEDEEIARDFILFGKPDVTLIVADATRLERNMNLILQILEITDRAVLCANLMDEAERNGVEIDLRGLSRRLGIPVVGASARSGEGISDLLSALSEVAQGIYRCTPHRLTSIGTEIDTRIDSLAESIRLFHPDTPNSRWLALRLTEGDRRVENILYADNEAPAEKLKKEVDEFRRNFGEDLHDQLSEALYSDAGKICQEVITQANKRGRTPLDIKIDRIVTSRKWGFPIMLLMLALVLWITIVGSNYPSQWLSDSLVGILHPLLKTRATGFLPDWLSGFLIDGVYLATAWVVSVMLPPMAIFFPLFTLLEDFGFLPRVAFNLDELFRRSGAHGKQALTMTMGFGCNAAAIINTRIIDSQRERLIAILTNNFSLCNGRWPTQILLATIFLTPAVPAYLRGVIGIGSVVAIALLGIAFMFFFSWVLSRTLLRGQVSTFNLELPPYRPPQFWQTIYKSIVDRTLVVLWRAVVFAAPAGALIWLTCNIQIGGVGIAEYLIDLLDGPGWLMGLNGVILLAYVLAIPANEIVIPTILMLTVLTTGIDGGTGAGVMFEADGTAETARLFEAGGWTMLTGINLMLFCLLHNPCSTTLFNIYKETGSRKWTLLAALIPLATGFVVTVAVAFVWRLVGG", "values": [{"measurement": "protein production", "result": "failed"}]}, {"sequence": "MTITILAFIIALFFAMNIGASGAAASMGIAYGAGAVRKRQAALWISGIGVFLGAMIGGGEVVKTIGSGIIPASILNVHIVVIILGSSAISLFIANIAGIPLSTSEVTVGSIVGVGVAFQAVFTDKLLVIVMYWLIIPIAAFFLAFLIGQLLKKTEAKLRWLKQQKWARLLTALVILTGFLEAFSAGMNNVANSVGPLVGAGLLSVGSGTFLGGLFVAIGAICLGSRVIETNGKKITEFSLLQGSCVSGLGASLVIGASLFGIPVPQTQITTCSIIGIGLSEKGRAIFRKSVILKLMKVWVVSPVFSLVISYSLVKIFLDFDLYSVAVVLCVFLATLGSISLMKHARQKQSDVRRNRDHVKSIVGGRGRKREPAAWRDF", "values": [{"measurement": "protein production", "result": "failed"}]}, {"sequence": "MKENLELVEFFEYLLILVLNMLVASIVFLQEYCIGSIRLSHYRRIFATVMAIRSLVSIWIIYPMTATLLGTLNILVIQSIILLFLWGLMQCVKKYRGKWYITMIALIIYGLSCYFHIMYAKTV", "values": [{"measurement": "protein production", "result": "failed"}]}, {"sequence": "METRAHHVLIGLFTVIVVAGALLFGLWLAKSSVDSAFQDYQIVFNEAVSGLSKGSSVQYSGIKVGDVVNLRLDPKDPRRVLAQIRLGSETPIKEDTQAKLALTGITGTSIIQLSGGTPQSPTLKGKDGELPTIIASPSPIARLLNNSNDLMTGVNLLLHNANRMFSPDNVARVSSTLDNLQKTSASIAEQRDDLRQLMQQLGSISKQTGAMLEQTTALMRNANGLLNDQGKQMFGSAEHAMRSLEQSSATLNKLLSDNQDSLNNGMQGLNGLAPAVRELRETLSSLRAITRRLEANPGGYLLGNEKNKEFTPLEHHHHHH", "values": [{"measurement": "protein production", "result": "not failed"}]}, {"sequence": "HEETECPLRLAVCQHCDLELSILKLKEHEDYCGARTELCGNCGRNVLVKDLKTHPEVCGREG", "values": [{"measurement": "protein production", "result": "not failed"}]}, {"sequence": "MKRLFIASLLAFAPFTWALDQAGSQRLSDLQQRWAQIQYQMPKDKRADAFEKLAGDAATFVRQYPGTPEPLIWEGIINSSWAGATGGLGALGKVKAAKASLEQAMKLDPAALQGSAYTSLGTLYDQVPGWPIGFGDAEMADKMLRKALQINPNGIDSNYFWADHLYRQKRYPEATAALQKALQAPPRPGRELADQGRRADIDALLKTIKDKQD", "values": [{"measurement": "protein production", "result": "failed"}]}, {"sequence": "MITLAVRLKNLAFLLIAVLALSFLGIRYADLGRYVGVADYYTVDVHLPRTGGLFTHSDVTYRGVSVGRVGPIDLTAEGVVAELRIKKSAPRIPADTKAVVAGLSAVGEQYIDLRPESDGSPYLADGTRIEQADTEVPAPVTDVLTSVDDLASSVPLEDLRTVVDEFGKAFDGHGDDLQVLLDSGSDFVEAADRALPSTTLLINDGETVLRTQAQEARAIRDFAVGAKDLAAALKGSDADLRRLLAVTPEAATQVSGLLRDLDPSLGVVLANLLTTSEVAVTRQRGIEELLVKYPAAVSAGATAVDGGKLDLGLAVTFFSPLPCTDGYGGTRYRNGLDLGTAPALNTDAACTAPASGGKNVRGSANAPKSGAVPDPATPGSLPSGGGRTTPAGGGSPARDGSTALPGALALPGQSGEAPAGLTGLLAPAAGGARLEHHHHHH", "values": [{"measurement": "protein production", "result": "failed"}]}, {"sequence": "MPAASQDNDGGPSQSGGPMADPAPLIDTDPARIGEYTLLGRLGQGGQGVVYLGSAPDGARVAVKTLHRDALDLPGLREQLAEEVEMARRVARFCTAQVLAADLDADPPYVVSEYVEGPSLQAVVRERGPLRGASLERLAVGTLTALAAIHQAGIVHRDFKPANVLMAPGGPRVIDFGIARALEGTAILTSRIAGTPAYMAPEQITGGPLGPAVDMFAWGATLVYAANGRGPFGHGSLKAVVQRVINDEPDFGELSGTLREIAERCLNKDAAQRPTAAETLMLVLGIEGPPPTEEPSTDTAIPVTHQTLVAGAIAAADTGEQESAAELYRSYPPAPPPPHSNVAAQPSPTPPPHPQTASGPQPSLPSTGAQHSGYGYATGPHQSGYGYATGPQQGGYAPPPGPHQHAYPTPHSGNAAIPPHGGPSGPYAPAQPWMPSTGGYPQTSQPYSGQQYQQQAEGTSTAFVLGVVSIAVIAGVLLFILLFLLIGSLG", "values": [{"measurement": "protein production", "result": "failed"}]}, {"sequence": "MNYYGTSMWASDNNTASNSDSSLNLLGILLLASENNKLINNTVLTNLYGVNLMAESTGIGDKTGPSENILASNIISYNLGTGILFDESYGNLIYNNSFDNIWNVEDESLNTWNSSEIGNYWSDYEGEDADGDGVGDTPYLINSHTGSMDYLPVTRSSDFPELEHHHHHH", "values": [{"measurement": "protein production", "result": "failed"}]}, {"sequence": "MPQHDKSRLVRIDTGPMINPVAGKPSRPIAGDASFRTVTAFEGGQGKVESGVWESTSGSFQSNTTGYIEYCHIIEGEARLVDPDGTVHAVKAGDAFIMPEGYTGRWEVDRHVKKIYFVTHLA", "values": [{"measurement": "protein production", "result": "not failed"}]}, {"sequence": "MNIRHIRNATAVIEYGGKRILIDPMLSDKGSFDPFPNSPRQDQKNPLVELPMAIEDIINDIDLVILTHLHIDHFDPKAIEVLPKDIKIYAQNEEDASEVERYGFTNVSVFNDVTHIGEIELIKTDAQHGHGEILKMTGHVHGMILKHSEEPTLYLAADTVWFEGVEKALKTYQPDVVVLNGGANQFFEGGPLVMDEHDVLKVANTLPLAQIVVVHMEAVNHWHLSRKELNEFINSNDLGNRVVVPNDGELLTFEK", "values": [{"measurement": "protein production", "result": "failed"}]}, {"sequence": "MRNRLPPAWAKHLKTQPSVKVAMPKATLPKAQPNASPPRSQADDMLLRQALELQQAKRLPEAEELCLRVLARTPNHPLAYYILGTLGIGYDNEKALRYFARAVAEEPQNPYYHLSLGETYLKVSEFTPAIRHIQQALDLKPDLVEALCALGDAYNEFDKGELALPLFEKALKIDRYHPLARLGLPYALASLGRMDEAAVLLKEAIDRRIALPTAYGALVQTRNFTEEPPELESILAELRDPDLGSEDASALHHAAGKVLNDLGRYKEAMVHYKKGNQAGGHKFDLENYRRWIDAMIETFTPELFASRAAYGNPSDAPVFVVGMPRSGTTLTEQICASHPNVHGAGELGKLRRVANGIGLANRSNTNFAESIATFTPDLTRALAGEHLAYLRERAPDALRIVDKMPHNFELIGLIGILFPNARIIHCRRDAIDNCISCFVLRFNEAHSYSADLQTLGLYYREYDRLMRHWNKVLPGRIFENRYEALIENQEQQSRRLIDYLGLPWDDACLRFFDREGSVNTYSRWQVRQPIYTSSIKRWRNYESEIQSLIESLGDLAET", "values": [{"measurement": "protein production", "result": "failed"}]}, {"sequence": "MRKVSISILFMLVSLTWGTTWLAMRIAVETIPPVFATGMRFMFAAPFLIIIAWLRKKTLLFPPGQRLFQFVICIFYFSIPFSLMIYGETYVNSGLAAIIFANMPVAVLIASVLFLNEKAKLMQIAGLTIAITALTGILLEEANTSTESHWQGITALISAVLIHAIIYTQCKKRSCTVSVITFNALPCLLAGLILSATGWFFERPQVSTFSVHSILATLYLGAFAGVFGILCYFALQQKANAFQASLVFLIFPLIAVSLEDYIYGYAISTHSMLLIIPLAIGIFLTLVARNIPVTSRCRDNSSQE", "values": [{"measurement": "protein production", "result": "failed"}]}]}
